Paper PMC3134789

T1: Nova-1 KH2 (UniProt Q9JKN6 171-237)
T1 sequence: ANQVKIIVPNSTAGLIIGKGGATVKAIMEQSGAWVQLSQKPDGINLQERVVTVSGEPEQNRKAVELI


Tests used:
[1] = biological target: Nova-1 KH2 domain (individual domain); assay: AUC
[2] = biological target: Nova-1 KH2 domain (individual domain); assay: SEC
Nova-1 KH2 = biological target: T1, Nova-1 KH2; assay: NMR

Nova-1 KH2 domain (individual domain) (domain or fragment), sequence (P51513 44-493): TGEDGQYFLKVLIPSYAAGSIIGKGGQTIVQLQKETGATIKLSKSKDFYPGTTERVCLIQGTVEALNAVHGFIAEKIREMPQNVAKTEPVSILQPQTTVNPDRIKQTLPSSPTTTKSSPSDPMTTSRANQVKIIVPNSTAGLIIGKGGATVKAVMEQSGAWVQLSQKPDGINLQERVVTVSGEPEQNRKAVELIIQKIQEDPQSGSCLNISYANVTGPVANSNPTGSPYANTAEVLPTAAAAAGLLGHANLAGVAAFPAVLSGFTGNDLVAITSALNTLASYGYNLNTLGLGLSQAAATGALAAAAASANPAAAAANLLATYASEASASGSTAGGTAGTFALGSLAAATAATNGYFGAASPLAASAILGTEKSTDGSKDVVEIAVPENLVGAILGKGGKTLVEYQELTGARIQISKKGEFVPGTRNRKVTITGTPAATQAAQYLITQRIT

Molecule	stoichiometry N [1]	stoichiometry N [2]	binding result (Nova-1 KH2)
Nova-1 KH2 domain (individual domain) (domain or fragment)	2	2	
UCAC (ssRNA) [UCAC tetranucleotide]			binds
